Results as given in publication PMC11602133.

Biological target: T1, … 3 (SEP3), in vitro produced (Arabidopsis), O22456
T1 chain: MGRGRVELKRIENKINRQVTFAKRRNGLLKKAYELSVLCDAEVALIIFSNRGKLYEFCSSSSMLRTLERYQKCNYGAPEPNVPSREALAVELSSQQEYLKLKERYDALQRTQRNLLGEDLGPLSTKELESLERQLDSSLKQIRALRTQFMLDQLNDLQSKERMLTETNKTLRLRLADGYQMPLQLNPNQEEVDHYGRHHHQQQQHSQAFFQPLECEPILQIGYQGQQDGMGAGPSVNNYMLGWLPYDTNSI
Test: native gel or EMSA; in vitro produced proteins (wheat germ TnT) mixed with a DY-682 labelled ~100 bp DNA probe containing a CArG-box (SAUR10 probe); protein complexes read from the shifted bands on DNA; anti-FLAG antibody added for supershift where FUL-FLAG was used
Conditions: remark: other sources report otherwise

stoichiometry N: 2
B1: … 3 (SEP3), in vitro produced, O22456 1-251 (natural protein)
chain: T1 chain
